Measurements as given in US20210260216A1 (OSPEDALE SAN RAFFAELE S R L, published 2021).

Biological target: p53 (Homo sapiens (Human), UniProt P04637 1-393)
Test: cell-based or functional assay

Sequence of p53 (P04637 whole entry): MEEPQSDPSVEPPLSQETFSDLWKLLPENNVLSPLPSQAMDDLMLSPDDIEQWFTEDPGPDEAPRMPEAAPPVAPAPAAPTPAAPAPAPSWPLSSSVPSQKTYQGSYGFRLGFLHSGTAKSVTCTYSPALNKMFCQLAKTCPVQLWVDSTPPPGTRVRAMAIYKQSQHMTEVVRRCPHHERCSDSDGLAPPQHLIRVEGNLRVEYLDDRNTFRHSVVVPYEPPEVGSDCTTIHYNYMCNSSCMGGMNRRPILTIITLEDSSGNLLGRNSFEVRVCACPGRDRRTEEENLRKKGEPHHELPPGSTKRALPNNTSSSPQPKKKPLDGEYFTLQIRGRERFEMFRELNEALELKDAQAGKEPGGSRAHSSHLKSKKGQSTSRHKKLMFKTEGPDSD

B1: GSE56 (p53 dominant negative peptide) (peptide)
peptide: MDGWCPGRDRRTEEENFRKKEEHCPELPPGSAKRALPTSTSSSPQQKKKPLDGEYFTLKIRGRERFEMFRELNEALELKDARAAEESGDSRAHSSYPKIVS
- fold decrease in TaqMan assay of CDKN1A (p21) gene fold expression at 24 hours post-editing: ~3 fold
